Consider four molecules from US20190169289A1 (Scripps Research, published 2019).

For one assay, the target named is anti-Her2-FLAG switch. In words: ELISA, absorbance at 375nm, of anti-FLAG antibody 5B3 on the anti-Her2-FLAG switch; the text gives the same value as an apparent affinity of 2.2×10^-10 M.
Assay [1] deals with T1, anti-GCN4 (52SR4 scFv) sCAR with CD8 hinge.
T1 construct: 273 is the protein without leader; also called sCAR (long); CD8 sCAR
The assay is described as follows: flow cytometry on sCAR-T cells.

Assay [2] addresses T1, anti-GCN4 (52SR4 scFv) sCAR with CD8 …. The assay is described as follows: flow cytometry on CD8 sCAR-T cells, switch 30 min at 4 C, detected with PE-conjugated goat anti-human kappa chain antibody, MFI.
Description: Cells were washed two times and analyzed using the Accuri flow cytometer (BD).
Assay [3] has the same target. In words: flow cytometry of CD8 sCAR T cells stained with AF488-conjugated PNE; filled histogram against a dashed control histogram.
For assay [4], the target named is T2, anti-GCN4 (52SR4 scFv) sCAR with IgG4m hinge.
T2 construct: disulfide dimer by western blot; also called short-dimeric sCAR; IgG4m sCAR
T2 chain: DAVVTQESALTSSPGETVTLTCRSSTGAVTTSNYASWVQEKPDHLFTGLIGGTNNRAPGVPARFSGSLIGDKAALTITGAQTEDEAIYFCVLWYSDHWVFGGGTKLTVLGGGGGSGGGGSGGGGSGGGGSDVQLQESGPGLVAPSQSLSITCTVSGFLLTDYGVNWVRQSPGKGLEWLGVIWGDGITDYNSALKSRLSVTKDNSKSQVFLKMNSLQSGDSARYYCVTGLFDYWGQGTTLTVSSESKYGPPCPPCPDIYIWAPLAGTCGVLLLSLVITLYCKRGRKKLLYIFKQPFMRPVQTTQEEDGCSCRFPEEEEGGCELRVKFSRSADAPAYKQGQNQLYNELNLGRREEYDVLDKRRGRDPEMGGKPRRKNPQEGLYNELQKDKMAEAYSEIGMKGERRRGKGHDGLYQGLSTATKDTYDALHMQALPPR
The assay is described as follows: flow cytometry competition on CAR-T cells with the GCN4 CAR (SEQ ID NO. 74): 1 nM labelled GCN4 peptide (GCN4-AF488) as competitor, unlabelled peptide titrated, MFI of the labelled peptide read.
Description: Un-labelled peptide binding efficiency was indirectly shown by measuring the mean fluorescence intensity (MFI) staining with the labelled peptide.
Cells were then washed twice with cold PBS to remove the free labelled peptide before being analyzed using the BD Accuri flow cytometer.

Ends that are not written are not given here.

B1: anti-FLAG monoclonal antibody (clone: 5B3) (antibody, V domains shown)
VH: EVQLQQSGAELVKPGASVKLSCTASGFNIKDYYMHWVKQRTEQGLEWIGRIDPEDGETKYAPKFQGKATITADTSSKTAYLQLSSLTSEDTAVYYCARLKGGYWGQGTTLTVSS
VL: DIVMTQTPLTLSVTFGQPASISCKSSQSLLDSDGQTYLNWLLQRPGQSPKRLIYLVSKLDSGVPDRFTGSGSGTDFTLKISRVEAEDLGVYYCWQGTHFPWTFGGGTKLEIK
notes: Mouse hybridoma antibody
Consider B1, for which, in the assay with anti-Her2-FLAG switch, the EC50 is 0.22 nM.

B2: anti-CD19 (FMC63) IgG LCC1 switch (antibody)
light: DIQMTQTTSSLSASLGDRVTISCRASQDISKYLNWYQQKPDGTVKLLIYHTSRLHSGVPSRFSGSGSGTDYSLTISNLEQEDIATYFCQQGNTLPYTFGGGTKLEIKRTVAAPSVFIFPPSDEQLKSGTASVVCLLNNFYPREAKVQWKVDNALQSGNSQESVTEQDSGGGGSNYHLENEVARLKKLGGGGSDSTYSLSSTLTLSKADYEKHKVYACEVTHQGLSSPVTKSFNRGEC
heavy: EVKLQESGPGLVAPSQSLSVTCTVSGVSLPDYGVSWIRQPPRKGLEWLGVIWGSETTYYNSALKSRLTIIKDNSKSQVFLKMNSLQTDDTAIYYCAKHYYYGGSYAMDYWGQGTSVTVSSASTKGPSVFPLAPSSKSTSGGTAALGCLVKDYFPEPVTVSWNSGALTSGVHTFPAVLQSSGLYSLSSVVTVPSSSLGTQTYICNVNHKPSNTKVDKKVEPKSCDKTHTCPPCPAPPVAGPSVFLFPPKPKDTLMISRTPEVTCVVVDVSHEDPEVKFNWYVDGVEVHNAKTKPREEQYNSTYRVVSVLTVLHQDWLNGKEYKCKVSNKGLPSSIEKTISKAKGQPREPQVYTLPPSRDELTKNQVSLTCLVKGFYPSDIAVEWESNGQPENNYKTTPPVLDSDGSFFLYSKLTVDKSRWQQGNVFSCSVMHEALHNHYTQKSLSLSPGK
notes: also called LCC1 IgG; IgG (FcNull) switch
For the molecule B2, the binding result in assay [1] was “binds”.

B3: anti-CD19 (FMC63) Fab LCNT switch (Fab, V domains shown)
VH: EVKLQESGPGLVAPSQSLSVTCTVSGVSLPDYGVSWIRQPPRKGLEWLGVIWGSETTYYNSALKSRLTIIKDNSKSQVFLKMNSLQTDDTAIYYCAKHYYYGGSYAMDYWGQGTSVTVSS
VL: DIQMTQTTSSLSASLGDRVTISCRASQDISKYLNWYQQKPDGTVKLLIYHTSRLHSGVPSRFSGSGSGTDYSLTISNLEQEDIATYFCQQGNTLPYTFGGGTKLEIKR
notes: also called LCNT Fab
For the molecule B3, in assay [2], the “EC50 (read off the curve)” value is roughly 2 nM.

NYHLENEVARLKKL (not fully specified, also called PNE) [yeast transcription factor GCN4 minimal binding peptide NYHLENEVARLKKL]: the binding result in assay [3] and in assay [4] was “binds” in each case.
